{"source": "the nanobody polyreactivity screen of Harvey et al. (2022)"}
{"assay": "yeast display, Sf9 membrane polyspecificity reagent, FACS + sequencing; frameworks hold sequencing errors", "summary_of_the_method": "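Polyreactivity labels are assigned by the sorting gate from which each nanobody was recovered. The gates were low and high (top ~1%), set on anti-HA fluorescence for expression and streptavidin fluorescence for reagent binding. Before sorting, galactose-induced (36–48 hours) yeast display cells were stained for 1 hour at 4 °C with 10% biotinylated, detergent-solubilized Sf9 membrane reagent.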"}
{"sequence": "QVQLVESGAGFFQAGGSLRVSCAASGRTFPVYAMGWYRHAPGNERELVARINSGGRTTYADSVKGRFTISRDNAKNTVYLQMISLNPEDTAVYYCNARSWYYVWRKGYRHGDYWGQGTQVTVSS", "polyreactivity (PSR sort gate)": "high polyreactivity"}
{"sequence": "QVQLVESGAGIVQAGGSLRLSCAASGRTCTWYAMGWYTQAPGKERELVAAISKSGGSTYYADSVKGRFTISRDTAKNTVFLQMNSLKPEDTAVYYCNADFYGYFLGYGYWGQGTQVTVSS", "polyreactivity (PSR sort gate)": "low polyreactivity"}
{"sequence": "QVQLVESGAGIVQAGGSLRLSCAASGRTFNWYAMGLYTQPPGKERELVAAITYPGGTTYYADSVKGRFTISRDNAKNTVYLQMNSLKPEDTAVYYCAATFRYRRVTPTTRFNYWGQGTQVTVSS", "polyreactivity (PSR sort gate)": "high polyreactivity"}
{"sequence": "QVQLVESGAGLVQAGGILRLSCAASGRTFYRNTMGWYRQAPGKEREFVAAISATAGRTYYADSVKGRFTISRDNAKNTVYLQMNSLKPEDTAVYYCAAVPLRNRLPNSWPALDYWGQGTQVTVSS", "polyreactivity (PSR sort gate)": "high polyreactivity"}
{"sequence": "QVQLVESGAGLVQAGGRLRLSCAASGFTFYYNAMGWYRQAPGKEREFVAAISRSAGSTTYADSVKGRFTISRDNAKNTVYLQMNSLKPEDTAVYYCNARRSRGKSYDYWGQGTQVTVSS", "polyreactivity (PSR sort gate)": "high polyreactivity"}
{"sequence": "QVQLVESGAGLVQAGGSLRFSCAASGFIFVAYAMGLYRPAPGKERELVAAITSSGGTTYYADSVKGRFTISRDNAKNSVYFQMNSLKPEDTAVYYSAAYRRRSPFEYWGQGTQVNVSS", "polyreactivity (PSR sort gate)": "high polyreactivity"}
{"sequence": "QVQLVESGAGLVQAGGSLRISCDASGSIFWSYAMGWYRQAPGKERELVADITGIGGSTYYADSVKGRFTISRDNAKNTVYLQMNSLKPEDTAVYYCAADTWFTAQTYNFYYRGQGTQVTVSS", "polyreactivity (PSR sort gate)": "high polyreactivity"}
{"sequence": "QVQLVESGAGLVQAGGSLRLSCAASGFTLVLNAMGGYSQAPGKERELVAAIRRSAGSTYYADSVKGRFTISRDNAKNTVYLQMNSLKPEDTAVYYSNADYTYTDRRFAPAGGWYYYWGQGTQVTVSS", "polyreactivity (PSR sort gate)": "low polyreactivity"}
{"sequence": "QVQLVESGAGLVQAGGSLRLSCAASGGTLRYYAMGWYRPAPGKEREFVASISRSGGSTYYADSVKGRFTISRYNAKNTVYLQMNSLKPEDTAVYYCAAYWSPGYTTGRGYWGQGTQVTVSS", "polyreactivity (PSR sort gate)": "high polyreactivity"}
{"sequence": "QVQLVESGAGLVQAGGSLRLSCAASGLTFIYNAMVWYRQAPGKERELVAAISGNGGDTYYADSVKGRFTLSRDNAKNTVYLQMNSLKPEDTAVYYCAADYAYTPITCDEYWGQGTKVTVSS", "polyreactivity (PSR sort gate)": "low polyreactivity"}
{"sequence": "QVQLVESGAGLVQAGGSLRLSCAASGLTFRSYAMGWYRQAPGKERELVAAITRSGGSTYYADSVKGRFTISRDNAKNTVYLQMNSLKPEDTAVYYCAARYKGNPDRYGYWGQGTQVTVSS", "polyreactivity (PSR sort gate)": "high polyreactivity"}
{"sequence": "QVQLVESGAGLVQAGGSLRLSCAASGPILRTYAKGWYRQAPGKERELVAAISRSGGSSYYADSVKGRFTLSRDNAKNTVYLLMNSLKPEDTAVYYCNKAYGGRGYKYEYWGQGSQVTVSS", "polyreactivity (PSR sort gate)": "high polyreactivity"}
{"sequence": "QVQLVESGAGLVQAGGSLRLSCAASGRTFGTNTKGWYRPAPGKEREFVATITSSGGSTYYADSVKGRFTISRDNAKNTVYLQMNSLKPEDTAVYYCATDPYGGKTQYPSLRYDYWGQGTQVTVSS", "polyreactivity (PSR sort gate)": "low polyreactivity"}
{"sequence": "QVQLVESGAGLVQAGGSLRLSCAASGSIFNSYAMGWYRQPPGKERELVAAISKAGGSTYYADSVKGRFTISRDNAKNTVYLQMNSQKPEDTAVYYCAARYGRCYDSAYNYWGQGTQVTVSS", "polyreactivity (PSR sort gate)": "high polyreactivity"}
{"sequence": "QVQLVESGAGLVQAGGSLRLSCAASGSIFVYYTMGCYRQAPGKEREFVAAISFSGGSTYADSVKGRFTISRDNAKNTVYLQMNSLKPEDTAVYYCNADRWLYTPSKFVEMDFWGQGTQVTVSS", "polyreactivity (PSR sort gate)": "low polyreactivity"}
{"sequence": "QVQLVESGAGLVQAGGSLRLSCAASGSNFKWYAMGLYRQAPGKEREFVAAITWSGSGTFYADSVKGRFTISRDNAKKTVYLQMNSLKPEDTAVYYCNKADSYLLYSVTARYFRGFYSWGQVTQVTVSS", "polyreactivity (PSR sort gate)": "high polyreactivity"}
{"sequence": "QVQLVESGAGLVQAGGSLRLSCAASGSSFYFNAMGLYRQAPGKERELVAAIDWSGGSTYYADSVKGRFTISRDNAKNTVYLQMNSLKPEDTAVYYCAAPYHYYGNTVGYADYDYWGQVTQVTVSS", "polyreactivity (PSR sort gate)": "low polyreactivity"}
{"sequence": "QVQLVESGAGLVQAGGSLRLSCAASGSTFPFYAMGWSRQAPGKERELVAAITSGGSTYADSVKGRFTISRDNAKNTVYLQMNSLKPEDTAVYYCNAEQNPSGLYDYRGVEGEMGYWGQGTQVTVSS", "polyreactivity (PSR sort gate)": "low polyreactivity"}
{"sequence": "QVQLVESGAGLVQAGGSLRLSCAASGSTFSRYAMGWYRQAPGKERELVAAISSRGGSTYYADSVKGRFTISRDNAKNTVYLQMNSLKPEDTAVYYCNALTSYQNHVYPYDYWGQGTQVTVSS", "polyreactivity (PSR sort gate)": "high polyreactivity"}
{"sequence": "QVQLVESGAGLVQAGGSLRLSCAASGSTFSYYAMGWSRQAPGKERELVAAITSSGGSTYYADSVKGRFTISRDNAKNTVYLQMNSLKQEDTAVYYCNTAYHVPYDYWGQGTQVTVSS", "polyreactivity (PSR sort gate)": "low polyreactivity"}
{"sequence": "QVQLVESGAGLVQAGGSLRLSCAASGSTFSYYTMGWYRHAPGKERELVAAITSGGPTNYADSVKGRFTISRDNAKNTVYLQMNSLKPEDTAVYYCAAALYYGWGYYYWGQGTQVTVSS", "polyreactivity (PSR sort gate)": "low polyreactivity"}
{"sequence": "QVQLVESGAGLVQAGGSLRLSCAASGSTSTLNAMGWYRQAPGTERELVAAISRSGTSTYYADSVKGRFTISRDNAKNTVYLQMNSLKPEDTAVYYCAAYSYGPPYYYWGQGTQVTVSS", "polyreactivity (PSR sort gate)": "high polyreactivity"}
{"sequence": "QVQLVESGAGLVQAGGSLRLSCAASVRIFFYGMGWYIQAPGKQMELVATITSVSNTYYADSVKGRFTISRDNAKNTVYLQMNSLKPEDTAVYYCAARQDRYRYRYGYWGHGTQVTVSS", "polyreactivity (PSR sort gate)": "high polyreactivity"}
{"sequence": "QVQLVESGAGLVQAGGSLRLSCAAYGFIFRTNAMGWYRQAPGKERELVAAISNSGGRTYYADSVKGRFTLSRDNSKNTVYLQMNSLKPEDTAVYYCAAVLWYDIYYGGDYWGQGTQVTVSS", "polyreactivity (PSR sort gate)": "high polyreactivity"}
{"sequence": "QVQLVESGAGLVQAGGSLRLSCADSVNTFWYYTMGWYRQAPGKERELVAAISRGGRPYYADSVKGRFTISRDNAKNTVYLQMNSLKPEDTAVYNCNKPAPYTGSFDRSGIFDYWGQGTQVTVSS", "polyreactivity (PSR sort gate)": "high polyreactivity"}
{"sequence": "QVQLVESGAGLVQAGGSLRLSCASSGYIFDRYAMGWYRQAPGKERELVAAISGRGGSTYYADSVKGRFTISRDNAKYTVYLKMNSLKPEDTAVYYCARDVYVRYGQRARYDSWGQGTQVTVSS", "polyreactivity (PSR sort gate)": "high polyreactivity"}
{"sequence": "QVQLVESGAGLVQAGGSLRLSFAASGRTFVYNAMAWYRQAPGKERELVAAIDGGGDRTYYADSVKGRFTISRDNAKNTVYLQMNSLKPEDTAVYYCARDPGDTYYYSYPEGDYWGQGTLVTVSS", "polyreactivity (PSR sort gate)": "low polyreactivity"}
{"sequence": "QVQLVESGAGLVQAGGSLRLSSAASGGTFGHYVMGWYRPAPGKERELVAVISRRGGSTYYADSVKGRFTISRDTAKNTVYLQMNSLKPEDTAVYYCAAYQDVSYFKYSPYDYWGQGTQVTVSS", "polyreactivity (PSR sort gate)": "high polyreactivity"}
{"sequence": "QVQLVESGAGLVQAGGSLRLTCAASGRIFVINAMGWLRQAPGKETELVAPITGGGSTNYADSVKGRFTISRDNAKNTVYLQMNSLKPEDTAVYYCAADYRPVRRFYYSRYDYWGQGTQVTVSS", "polyreactivity (PSR sort gate)": "low polyreactivity"}
{"sequence": "QVQLVESGAGLVQAGGSLRVSCAASGLIFAWYAMGWYRQAPGKERELVATIDVSGGTYYADSVKGRFTISRDNAQNTVYLQMNSLNPEDTAVYYCAAGVTYWYDAPEYYYWGQVTQVTVSS", "polyreactivity (PSR sort gate)": "high polyreactivity"}
{"sequence": "QVQLVESGAGLVQAGGTLRLSCAASGFTCRYYAMGWSRQAPGKERELVASISWSGDSTYYADSVKGRFTISRDNAKNTGYLQMNSLKPEETAFYYCARQTGFPRSYIYRMYYWGQGTQVTVSS", "polyreactivity (PSR sort gate)": "high polyreactivity"}
{"sequence": "QVQLVESGAGLVQAGVSLGLSCAASGFTFVRDAMGWYRQAPGKEREFVASISARGGNTFYADSVQGRFSISRDNAKNTVYLKMNSLKPEDTAVYYCAKRGPYGTGYGYWGQGTQVTVSS", "polyreactivity (PSR sort gate)": "high polyreactivity"}
{"sequence": "QVQLVESGAGLVQARGSLRLSCAASGFTISYYAMGWYRQAPVKERELVAAITSGGSTYYADYVKGRFTISRDNAKNTVYVQMNSLKPEDTAVYYCIADGWYYPTDDYWGQGSQVTVSS", "polyreactivity (PSR sort gate)": "low polyreactivity"}
{"sequence": "QVQLVESGAGLVQEGGSLRLSCAASGFTFFGYAMGWYRQEPGKERELVATISDTGGSTYADSVKGRFTISRDTAKNTVYLQMNCVKPEDTAVYYCNARSVFYSMDYWGQGTQVTVSS", "polyreactivity (PSR sort gate)": "low polyreactivity"}
{"sequence": "QVQLVESGAGLVQEGGSLRLSCAASGSIFVGNAMGWYRQAPGKERELVATISWSGGSTYYADSVKGRFTISRDNAKNTVYLQMNSLKPEDTAVYYCAKTPYRRYRYGGYTYRTYDYWGQGTQVTVSS", "polyreactivity (PSR sort gate)": "low polyreactivity"}
{"sequence": "QVQLVESGAGLVRAGGSLRISCAASGNIYGANTMGWYRQAPGKERELDATITWSGGDTYYADSVKGRFTISRDNAKNSVYLQMNSLKPEDTAVYYCATRRFRYRPPFKYDYWVQGTQVTVSS", "polyreactivity (PSR sort gate)": "low polyreactivity"}
{"sequence": "QVQLVESGARLVPAGGTLRLSFADYGFNFGQYAMAWYRQAPGKERELVAAISWSGGSTYYAESVKGRFTISRDNAKNTVYLQMNSLKPEDTAVYYCGEELGDYWGQGTQVTVSS", "polyreactivity (PSR sort gate)": "high polyreactivity"}
{"sequence": "QVQLVESGARLVQEGGSLRLSCAASGSIFGRYVMGGYRQEPGKEREFVAAITYSGSSTYYADSVKGRFTISRDNAKNTVYLQMNSLKPEDSAVYYCNTYPGSFYWMGYWGQGTQVTVSS", "polyreactivity (PSR sort gate)": "high polyreactivity"}
{"sequence": "QVQLVESGCGLVHAGGSLRLSCAASGRILRYYAMGWYGQAPGKDRELVAVITSSDGSTYYADSVKGRITISRDNAMNTVYLQMNSLKPEDTAVYYCAAAPLWRLASWWDPYRRYDYWGQGTQVTVSS", "polyreactivity (PSR sort gate)": "low polyreactivity"}
{"sequence": "QVQLVESGCGLVHAGGSLRLSCAASGSNFGDYAMGCYRQAPGKERELVAAITKSGGTTYYADSVKGRFTISRDNAKNTVYLQMNSLKPEDTSFYYCAADPIRYRSRHKYGYWGQGTQVTVSS", "polyreactivity (PSR sort gate)": "low polyreactivity"}
{"sequence": "QVQLVESGEGLVQAGGSLRLSCAASGRIFYSNDMGWYRQAPGKEREFVAAITDSGGSTYYADSVKGRFTISRDNAKNTVYLQMNSLKPEDTAGYYCAKRQYQSYIRGPYYYWGQGTQVNVSS", "polyreactivity (PSR sort gate)": "low polyreactivity"}
{"sequence": "QVQLVESGGALDQAGGRLPLSSAASGSIFRINAMRLYRQAPGKVRELVAAISWSGGSTYYADSVKGRFTISRDNAKNTVYLQMNSLKQEDTAVYYCADVVSKSSFDYWVQGTQVTVSS", "polyreactivity (PSR sort gate)": "low polyreactivity"}
{"sequence": "QVQLVESGGALVHAGGSLRLSCAASGSILKTYAMGWYIQAPGKEREFVAAMSSGGSTYYADSVKGRFTISRDNAKNTVYLQMNSLKPEDTAVYYCAADPWGDFVSFASYYYWGQGTQVTVSS", "polyreactivity (PSR sort gate)": "low polyreactivity"}
